Reference: PMC6611371 (Research and Practice in Thrombosis and Haemostasis, 2019)

Tests used:
Assay in all cases: SPR
FVIIaVQ = FVIIaVQ (Homo sapiens, UniProt P08709, point mutant)
FVIIaDV = FVIIaDV (Homo sapiens, UniProt P08709, point mutant)
FVIIaDQ = FVIIaDQ (Homo sapiens, UniProt P08709, point mutant)

B1: mAb4F5 (antibody, V domains shown)
VH: EVKLVESGGGLVQPGGSRKLSCAASGFTFSDYGMAWVRQAPGKGPEWIAFISNLSRIYYADTVTGRFTISRENDKNTLFLEMSSLRSEDSAIYYCTRDDGYYRVDYWGQGATLTVSS
VL: DIVMTQSHKFLSTSVGNRVSITCKASQDVGIGLVSWYQQKPGQSPKLLIHWASTRHTGVPDRFTGSGSGTDFTLTINNVQSEDLATYFCQQFSNYPLTFGSGTRLEIK
B1 gave a Kd (FVIIaVQ) of 130 nM, a koff (FVIIaVQ) of 0.0035 s⁻¹ and a Kd (FVIIaDV) of 1.1 nM. The koff (FVIIaDV) was 0.00016 s⁻¹, the Kd (FVIIaDQ) was 1.9 nM and the koff (FVIIaDQ) was 0.00024 s⁻¹.
